According to the Human Domainome abundance scans (Beltran et al. 2025):

B1: WW domain-containing transcription regulator protein 1, residues 116 to 162; numbered along this chain, Q9GZV5 (parent)
chain: QSYDVTDELPLPPGWEMTFTATGQRYFLNHIEKITTWQDPRKAMNQP

Variants of: B1
Test: abundance fitness (aPCA) (normalised: wild type 0, dead -1); higher = more abundant; growth selection in yeast, the domain comes from the species named
Settings: Homo sapiens

Abundance fitness: each site, then its substitutions
D7: M -0.185; G -0.154; Q -0.178; V -0.207; N -0.041
V5: G -0.194; L -0.103; R -0.111; Q -0.145; I 0.029; M -0.026; A -0.088; S -0.053
F19: Q -0.121; S -0.106; G -0.425; M -0.185; R -0.089; K -0.047; I 0.023; E -0.017; Y -0.082; D -0.319
W15: Y -0.351; A -0.913; N -0.616; F -0.311; E -0.689; H -0.876; G -0.636; V -0.69; K -0.784; T -0.753; P -1.09; I -0.802
I34: Q -0.158; K -0.35; R -0.223; D -0.454; Y -0.172; V -0.102; C -0.078; T -0.047; G -0.634
L28: V 0.035; I 0.044; R -0.112; K 0.128; G -0.583; M 0.055; H -0.55; P -0.697
L9: N -0.009; K -0.064; H -0.043; G -0.027; I 0.022; E -0.028
W37: D -0.481; Q -0.328; H -0.402; Y -0.073
T35: E -0.382; H -0.56; S -0.072; I -0.419; M -0.47; K -0.433; L -0.7; G -0.493
P47: T -0.148; N -0.84; H -0.577; A -0.06
P40: A -0.767; Y -1.07; H -0.988; E -0.757; L -0.987; T -0.857; N -0.796; C -0.92
P13: C -0.222; L -0.124; K -0.084; M -0.168; S -0.067; R -0.082; E -0.043; D -0.012; Q 0.026
T22: N -0.086; K -0.087; M -0.277; P -0.557; F -0.35; G -0.052; Q -0.141; A -0.092
Y3: H 0.013; P 0.087
Q1: V -0.45; G -0.163; M 0.26; A -0.519; I 0.001
L11: K -0.746; V -0.381; E -0.767; G -0.731; D -0.732; W -0.686; F -0.08
D4: F -0.152; N 0.053; L -0.147; A -0.083; C 0.049; R -0.151; W -0.381; P -0.071; Q -0.404
E32: M 0.072; W 0.094; L 0.201; V -0.19; S -0.02; C -0.053; F 0.122
M44: Y 0.014; V -0.045; H -0.085; L -0.012; A 0.005; W -0.15; I -0.244; N -0.215; C -0.02; Q -0.014
E8: A -0.027; K -0.005; N -0.128; C -0.163; L -0.253; V -0.118; M 0.065; W -0.78; I -0.274
G14: I -1; L -0.823; R -0.583; E -0.21; A -0.365; V -0.748; S -0.379
F27: K -0.818; Q -0.977; M -0.904; C -0.825
T36: Y -0.992; A -0.377; L -1.02; N -0.754; H -1.03; S -0.224; D -0.816; C -0.305
